Km data for 1 protein are collected here from ChEMBL document CHEMBL2074458, “Fluorescence-based assay for the interaction of small molecules with the human renal organic anion transporter 1” (Anal Biochem, 2000).

Substrate in this data set: O=C(O)c1ccc(C(=O)O)c(-c2c3ccc(=O)cc-3oc3cc(O)ccc23)c1
Description: TP_TRANSPORTER: uptake in OAT1-expressing CHO cells. The format is functional, cell-based.

B1: Solute carrier family 22 member 6 (Homo sapiens) (protein)
chain: MAFNDLLQQVGGVGRFQQIQVTLVVLPLLLMASHNTLQNFTAAIPTHHCRPPADANLSKNGGLEVWLPRDRQGQPESCLRFTSPQWGLPFLNGTEANGTGATEPCTDGWIYDNSTFPSTIVTEWDLVCSHRALRQLAQSLYMVGVLLGAMVFGYLADRLGRRKVLILNYLQTAVSGTCAAFAPNFPIYCAFRLLSGMALAGISLNCMTLNVEWMPIHTRACVGTLIGYVYSLGQFLLAGVAYAVPHWRHLQLLVSAPFFAFFIYSWFFIESARWHSSSGRLDLTLRALQRVARINGKREEGAKLSMEVLRASLQKELTMGKGQASAMELLRCPTLRHLFLCLSMLWFATSFAYYGLVMDLQGFGVSIYLIQVIFGAVDLPAKLVGFLVINSLGRRPAQMAALLLAGICILLNGVIPQDQSIVRTSLAVLGKGCLAASFNCIFLYTGELYPTMIRQTGMGMGSTMARVGSIVSPLVSMTAELYPSMPLFIYGAVPVAASAVTVLLPETLGQPLPDTVQDLESRWAPTQKEAGIYPRKGKQTRQQQEHQKYMVPLQASAQEKNGL
For B1, the Km (usually the substrate concentration at which the rate is half of its maximum) turned out to be 3.95 µM.
